Laboratory results from publication doi:10.1101/2020.08.27.270058.

T1: MglB (Myxococcus xanthus), Q1DB03
T1 chain: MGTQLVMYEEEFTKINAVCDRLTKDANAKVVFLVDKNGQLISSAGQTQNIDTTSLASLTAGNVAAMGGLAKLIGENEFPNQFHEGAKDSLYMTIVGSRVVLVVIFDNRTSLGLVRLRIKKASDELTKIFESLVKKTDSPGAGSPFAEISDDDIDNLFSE

B1: MglB, Q1DB03 1-159 (natural protein)
chain: MGTQLVMYEEEFTKINAVCDRLTKDANAKVVFLVDKNGQLISSAGQTQNIDTTSLASLTAGNVAAMGGLAKLIGENEFPNQFHEGAKDSLYMTIVGSRVVLVVIFDNRTSLGLVRLRIKKASDELTKIFESLVKKTDSPGAGSPFAEISDDDIDNLFSE

Legend:
[1] = target: MglB (Myxococcus xanthus) (UniProt Q1DB03); test: SEC
[2] = target: MglC (Myxococcus xanthus); test: SEC
[3] = target: MglB (Myxococcus xanthus) (UniProt Q1DB03); test: ITC
[4] = target: MglB (Myxococcus xanthus) (UniProt Q1DB03); test: SAXS
[5] = target: MglC (Myxococcus xanthus); test: SAXS
[6] = target: T1, MglB (Myxococcus xanthus), Q1DB03; test: SAXS; conditions: remark: other sources report otherwise
[7] = target: T1, MglB (Myxococcus xanthus), Q1DB03; test: SEC; conditions: remark: other sources report otherwise

Molecule | stoichiometry N (MglC:MglB (2:4)) [1] | stoichiometry N [2] | Kd [3] [nM] | dH [3] [cal/mol] | stoichiometry N [3] | stoichiometry N (MglC:MglB (2:4)) [4] | stoichiometry N [5] | stoichiometry N [6] | stoichiometry N [7]
MglC (natural protein) | 0.5 | 2 | 625 | 6940 | 0.5 | 0.5 | 2 | – | –
B1 | – | – | – | – | – | – | – | 2 | 2
